Tests used:
Test in all cases: pull-down binding Z-score (relative to library population); higher = stronger binding
Details in all cases: RNA library: Library-2
[1] = system: TO-N3 (biotin conjugate)
In short: (§1)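 The RNA library, end-labelled with Cy5 or Cy3, was heat-folded in phosphate/NaCl/KCl buffer, and 1 μg was incubated at 25 °C for 60 min with streptavidin beads carrying 100 pmol of biotin-conjugated small molecule. Hot SDS released the bound RNA, which was then hybridised to a DNA barcode microarray for 20 h at 55.5 °C. For scoring binding, signal from beads alone was subtracted, replicate barcoded probes were averaged after discarding the highest and lowest, and each value was turned into a Z-score from the library mean and standard deviation.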

[2] = system: TO-3-N3-2 (biotin conjugate)
In short: as §1

[3] = system: TO-3-N3 (biotin conjugate)
In short: as §1

[4] = system: TO-N3-2 (biotin conjugate)
In short: as §1

| Sequence | pull-down binding Z-score [1] | pull-down binding Z-score [2] | pull-down binding Z-score [3] | pull-down binding Z-score [4] |
| --- | --- | --- | --- | --- |
| GAGUGCUAUCUAACCUUAACUUGCCUGGUUGUGAUGGUGGCAGUUUGUAUGUAAAUAAACAUGCAUUCCACACACCAGCUUUUGAUAAAAGUGCUU [DMSMaPseq_invitro_SARS-CoV-2_Motif_343] | -0.637 | -0.487 | -0.749 | -0.238 |
| GAGUUACACAGAAUGUUCUCUAUGAGAACCAAAAAUUGAUUGCCAACCAAUUUAAUAGUGCUAUUGGCAAAAUUCAAGACUC | -0.581 | 0.305 | -0.57 | -0.226 |
| GAGUUUUUAGUGCAGUUGGUAACAUCUGUUACACACCAUCAAAACUU | 0.0323 | -0.12 | -0.305 | 0.396 |
| GAUAACAACUUC [SHAPE_invitro_SARS-CoV-2_Motif_16] | 0.252 | 0.0515 | 0.519 | -0.77 |
| GAUCAGUUUCACCUAAACUGUUC | -1.46 | -0.626 | -1.06 | -1.08 |
| GAUCUAAAACCAGUC [DMSMaPseq_invitro_SARS-CoV-2_Motif_121] | -0.0985 | 0.0363 | -0.0402 | -0.546 |
| GAUCUCUUGUAGAUC | 0.342 | 0.0231 | 0.682 | -0.498 |
| GAUGAGUACGAACUUAUGUACUCAUU | -1.25 | -0.473 | -0.907 | -0.762 |
| GAUGCUGUUGUGUGUUUCAAUAGCACUUAUGCAUC | -0.937 | -0.542 | -0.907 | -0.931 |
| GAUGGCACUUGUGGCUUAGUAGAAGUUGAAAAAGGCGUUUUGCCUCAACUUGAACAGCCCUAUGUGUUCAUC | -0.48 | -0.0725 | -0.665 | 0.432 |
| GAUGGCUUUCCUUGAGGAAUCCCAUC [IAV_invivo_PB1_2_Motif_6+IAV_invivo_PB1_2_Motif_6] | -1.41 | -0.719 | -1.04 | -0.986 |
| GAUGGUCAAGUAGACUUAUUUAGAAAUGCCCGUAAUGGUGUUCUUAUUACAGAAGGUAGUGUUAAAGGUUUACAACCAUC | -0.421 | -0.245 | -0.346 | -0.181 |
| GAUGGUGGCUGUAUUAAUGCUAACCAAGUCAUCGUC | 0.31 | 0.129 | -0.273 | 1.4 |
| GAUGUAAUUAUCUUGGCAAACCACGCGAACAAAUAGAUGGUUAUGUC [DMSMaPseq_invitro_SARS-CoV-2_Motif_374] | -1.03 | -0.326 | -0.928 | -0.828 |
| GAUGUAGAAUUGUUUGAAAAUAAAACAACAUU | -0.878 | -0.136 | -0.783 | -0.444 |
| GAUGUUCUUGUUAACAACUAAACGAACAAUGUUUGUUUUUCUUGUUUUAUUGCCACUAGUCUCUAGUCAGUGUGUUAAUCUUACAACCAGAACUC [DMSMaPseq_invitro_SARS-CoV-2_Multi_63_ComplexLevel_1] | 0.534 | 0.256 | 0.637 | -0.457 |
| GAUUAUGUGUACCUUCCUUACCCAGAUCCAUCAAGAAUCCUAGGGGCCGGCUGUUUUGUAGAUGAUAUCGUAAAAACAGAUGGUACACUUAUGAUU [SHAPE_invitro_SARS-CoV-2_Multi_44_ComplexLevel_1] | 0.661 | 0.262 | 0.359 | 0.0805 |

| Sequence | pull-down binding Z-score [1] | pull-down binding Z-score [2] | pull-down binding Z-score [3] | pull-down binding Z-score [4] |
| --- | --- | --- | --- | --- |
| GAUUAUUACAGAUC [DMSMaPseq_invitro_SARS-CoV-2_Motif_169] | -0.695 | -0.191 | -0.377 | -1.16 |
| GAUUCAGAUCUUAAUGACUUUGUC [SHAPE_invivo_SARS-CoV-2_Motif_393] | -0.539 | -0.439 | -0.246 | -0.794 |
| GAUUUGGCUACUAACAAUC [SHAPE_invitro_SARS-CoV-2_Motif_40] | 0.624 | 0.126 | 0.705 | -0.0811 |
| GAUUUGUCUUCUACAAUUUGCCUAUGCCAACAGGAAUAGGUUUUUGUAUAUAAUUAAGUUAAUUUUCCUCUGGCUGUUAUGGCCAGUAACUUUAGCUUGUUU | -0.372 | -0.102 | -0.15 | -0.904 |
| GAUUUUGGGACUACCAACUC | -0.683 | -0.384 | -0.579 | -0.581 |
| GCAAACAUACAACGUGUUGU [SHAPE_invitro_SARS-CoV-2_Motif_281] | -0.622 | -0.176 | -0.398 | -0.671 |
| GCAAAUUAAUGC | -1.04 | -0.864 | -0.689 | -1.25 |
| GCAAAUUGCACAAUUUGC | 0.0548 | 0.661 | 0.165 | -0.158 |
| GCAACUUGCUGUUGUUGUUUGUAACAGUUUACUCACACCUUUUGCUCGUUGC | -1.09 | -0.429 | -0.974 | -0.851 |
| GCAAGCUUCGAUAAUUUUAAGUUUGU [SHAPE_invitro_SARS-CoV-2_Motif_120] | 0.816 | 0.402 | 1.04 | -0.0709 |
| GCAAGUUGAAUCUGAUGAUUACAUAGCUACUAAUGGACCACUUAAAGUGGGUGGUAGUUGUGUUUUAAGCGGACACAAUCUUGC | -0.805 | -0.436 | -0.696 | -0.558 |
| GCACACUAGAACCAGAAUAUUUCAAUUCAGUGUGU | -1.2 | -0.413 | -0.957 | -1.18 |
| GCACAUAUAUCUACUAUUGGUGUUUGUUCUAUGACUGACAUAGCCAAGAAACCAACUGAAACGAUUUGUGC | -0.457 | -0.32 | -0.793 | 0.00798 |
| GCACCAUUAUUAUCAGCUGGUAUUUUUGGUGC | -0.921 | -0.502 | -0.619 | -1.18 |
| GCACCUCAUGGUGU | 0.66 | -0.649 | 0.707 | -0.856 |
| GCACGUAGUGUAGCUAGUCAAUCCAUCAUUGCCUACACUAUGUC | 0.227 | 0.0633 | 0.288 | 0.486 |
| GCACUACAGCUAAGGCUAUGGAGC [IAV_invivo_M1_M2_7_Motif_13+IAV_invivo_M1_M2_7_Motif_13] | -0.314 | -0.311 | -0.491 | 0.116 |

Source: the supplement of paper PMC11865577
